Publication PMC4601081, “A Single α Helix Drives Extensive Remodeling of the Proteasome Lid and Completion of Regulatory Particle Assembly” (Cell, 2015)

B1: Rpn5, subunit of LP2 and lid purified from yeast (natural protein, S. cerevisiae, UniProt Q12250 1-445, looked up)
chain: MSRDAPIKADKDYSQILKEEFPKIDSLAQNDCNSALDQLLVLEKKTRQASDLASSKEVLAKIVDLLASRNKWDDLNEQLTLLSKKHGQLKLSIQYMIQKVMEYLKSSKSLDLNTRISVIETIRVVTENKIFVEVERARVTKDLVEIKKEEGKIDEAADILCELQVETYGSMEMSEKIQFILEQMELSILKGDYSQATVLSRKILKKTFKNPKYESLKLEYYNLLVKISLHKREYLEVAQYLQEIYQTDAIKSDEAKWKPVLSHIVYFLVLSPYGNLQNDLIHKIQNDNNLKKLESQESLVKLFTTNELMRWPIVQKTYEPVLNEDDLAFGGEANKHHWEDLQKRVIEHNLRVISEYYSRITLLRLNELLDLTESQTETYISDLVNQGIIYAKVNRPAKIVNFEKPKNSSQLLNEWSHNVDELLEHIETIGHLITKEEIMHGLQAK
notes: Rpn5, S. cerevisiae proteasome lid subunit; source: purified from S. cerevisiae as part of LP2 or lid

Columns and labels:
Details in all cases: both partners purified
[1] = target: T1, Rpn3, subunit of LP2 and lid purified from yeast (S. cerevisiae, UniProt P40016 1-523); assay: cross-linking; QCLMS of lid purified from yeast as a whole complex: BS3-d0 / BS3-d4 at 1:200 protein to cross-linker, Buffer HA, 30°C 1 h; monomeric cross-linked complex cut from SDS-PAGE, trypsin, LC-MS/MS
T1 construct: Rpn3, S. cerevisiae proteasome lid subunit; source: purified from S. cerevisiae as part of LP2 or lid
T1 sequence (looked up): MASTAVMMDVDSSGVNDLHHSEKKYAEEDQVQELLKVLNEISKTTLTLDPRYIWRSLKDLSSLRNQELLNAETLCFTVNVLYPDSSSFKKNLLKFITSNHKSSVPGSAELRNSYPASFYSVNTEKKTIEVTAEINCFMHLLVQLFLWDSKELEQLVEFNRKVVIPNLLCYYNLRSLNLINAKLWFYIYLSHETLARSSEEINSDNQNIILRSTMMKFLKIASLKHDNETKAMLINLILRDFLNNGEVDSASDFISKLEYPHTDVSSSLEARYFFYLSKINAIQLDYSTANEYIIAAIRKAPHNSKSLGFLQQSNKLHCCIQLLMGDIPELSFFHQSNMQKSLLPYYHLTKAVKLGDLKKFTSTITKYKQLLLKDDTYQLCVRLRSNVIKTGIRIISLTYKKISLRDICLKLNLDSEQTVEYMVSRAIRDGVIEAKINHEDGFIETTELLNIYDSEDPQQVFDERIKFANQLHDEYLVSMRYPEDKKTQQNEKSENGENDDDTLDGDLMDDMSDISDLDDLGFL

[2] = target: T2, lid particle 2 (LP2), recombinant (S. cerevisiae, UniProt P40016 1-523; Q12250 1-445; Q12377 1-434; Q06103 1-429; Q08723 1-338; Q04062 …); assay: native gel or EMSA; RP assembly assay: recombinant components 1 uM each with 10 uM Rpn10 in 26S buffer (50 mM Tris-HCl pH 7.5, 5 mM MgCl2, 10% glycerol, 1 mM ATP), 30°C 20 min; native PAGE at 4°C; Coomassie or immunoblot (FLAG on Rpt1, HA on Rpn7, Rpn12)
T2 construct: Rpn3, S. cerevisiae proteasome lid subunit; Rpn5, S. cerevisiae proteasome lid subunit; Rpn6, S. cerevisiae proteasome lid subunit; Rpn7, S. cerevisiae proteasome lid subunit; Rpn8, S. cerevisiae proteasome lid subunit; Rpn9, S. cerevisiae proteasome lid subunit; Rpn11, S. cerevisiae proteasome lid subunit; Sem1, S. cerevisiae proteasome lid subunit; legends speak of 'untagged LP2'; operons as in …
T2 sequence (P43588 whole entry, one chain of several): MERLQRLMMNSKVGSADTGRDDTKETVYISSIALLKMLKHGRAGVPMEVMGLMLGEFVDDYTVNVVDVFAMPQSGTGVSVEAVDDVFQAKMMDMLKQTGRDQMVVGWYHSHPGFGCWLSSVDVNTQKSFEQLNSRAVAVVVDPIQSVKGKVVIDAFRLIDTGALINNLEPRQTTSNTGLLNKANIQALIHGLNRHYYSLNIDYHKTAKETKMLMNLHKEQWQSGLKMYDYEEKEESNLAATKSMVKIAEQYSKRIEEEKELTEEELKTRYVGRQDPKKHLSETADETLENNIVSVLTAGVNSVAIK

[3] = target: T3, Rpn8, subunit of LP2 and lid purified from yeast (S. cerevisiae, UniProt Q08723 1-338); assay: cross-linking; QCLMS of lid purified from yeast as a whole complex: BS3-d0 / BS3-d4 at 1:200 protein to cross-linker, Buffer HA, 30°C 1 h; monomeric cross-linked complex cut from SDS-PAGE, trypsin, LC-MS/MS
T3 construct: Rpn8, S. cerevisiae proteasome lid subunit; source: purified from S. cerevisiae as part of LP2 or lid
T3 sequence (looked up): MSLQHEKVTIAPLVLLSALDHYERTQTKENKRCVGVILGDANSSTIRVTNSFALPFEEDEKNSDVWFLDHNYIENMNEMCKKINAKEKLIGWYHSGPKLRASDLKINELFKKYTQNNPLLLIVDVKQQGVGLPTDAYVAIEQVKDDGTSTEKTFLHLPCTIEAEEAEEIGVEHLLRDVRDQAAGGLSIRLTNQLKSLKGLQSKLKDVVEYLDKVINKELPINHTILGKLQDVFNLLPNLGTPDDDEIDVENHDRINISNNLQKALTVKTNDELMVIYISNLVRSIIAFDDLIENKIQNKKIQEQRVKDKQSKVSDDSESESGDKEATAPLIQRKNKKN

[4] = target: T4, Rpn7, subunit of LP2 and lid purified from yeast (S. cerevisiae, UniProt Q06103 1-429); assay: cross-linking; QCLMS of LP2 purified from yeast as a whole complex: BS3-d0 / BS3-d4 at 1:200 protein to cross-linker, Buffer HA, 30°C 1 h; monomeric cross-linked complex cut from SDS-PAGE, trypsin, LC-MS/MS
T4 construct: Rpn7, S. cerevisiae proteasome lid subunit; source: purified from S. cerevisiae as part of LP2 or lid
T4 sequence (looked up): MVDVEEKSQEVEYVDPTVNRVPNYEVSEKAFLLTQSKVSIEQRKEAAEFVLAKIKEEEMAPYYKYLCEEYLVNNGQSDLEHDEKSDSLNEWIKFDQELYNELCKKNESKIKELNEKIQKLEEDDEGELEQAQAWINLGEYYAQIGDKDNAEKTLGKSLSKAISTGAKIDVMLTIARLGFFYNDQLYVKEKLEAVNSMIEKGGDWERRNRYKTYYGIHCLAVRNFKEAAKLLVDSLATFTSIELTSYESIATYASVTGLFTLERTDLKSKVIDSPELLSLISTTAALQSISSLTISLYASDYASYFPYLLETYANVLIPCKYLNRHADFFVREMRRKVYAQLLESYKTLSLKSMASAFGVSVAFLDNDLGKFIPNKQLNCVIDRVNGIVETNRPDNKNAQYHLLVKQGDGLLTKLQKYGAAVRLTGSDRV

[5] = target: T1, Rpn3, subunit of LP2 and lid purified …; assay: as above
[6] = target: B1; assay: cross-linking; QCLMS of lid purified from yeast as a whole complex: BS3-d0 / BS3-d4 at 1:200 protein to cross-linker, Buffer HA, 30°C 1 h; monomeric cross-linked complex cut from SDS-PAGE, trypsin, LC-MS/MS
[7] = target: T1, Rpn3, subunit of LP2 and lid purified …; assay: negative-stain EM; single-particle 3D reconstruction of LP2 purified from yeast at 16 Å; ~50 nM complex in Buffer A, 2% uranyl acetate

Binder: B1
- binding result [1]: binds

B2: Rpn12-E271K, recombinant (natural protein, S. cerevisiae, UniProt P32496 1-274, looked up)
chain: MPSLAELTKSLSIAFENGDYAACEKLLPPIKIELIKNNLLIPDLSIQNDIYLNDLMITKRILEVGALASIQTFNFDSFENYFNQLKPYYFSNNHKLSESDKKSKLISLYLLNLLSQNNTTKFHSELQYLDKHIKNLEDDSLLSYPIKLDRWLMEGSYQKAWDLLQSGSQNISEFDSFTDILKSAIRDEIAKNTELSYDFLPLSNIKALLFFNNEKETEKFALERNWPIVNSKVYFNNQSKEKADYEDEMMHEEDQKTNIIEKAMDYAISIKNIV
notes: Rpn12, S. cerevisiae proteasome lid subunit, Glu271 to lysine
- binding result [2]: binds

B3: Sem1, subunit of LP2 and lid purified from yeast (natural protein, S. cerevisiae, UniProt O94742 1-89, looked up)
chain: MSTDVAAAQAQSKIDLTKKKNEEINKKSLEEDDEFEDFPIDTWANGETIKSNAVTQTNIWEENWDDVEVDDDFTNELKAELDRYKRENQ
notes: Sem1, S. cerevisiae proteasome lid subunit; source: purified from S. cerevisiae as part of LP2 or lid
- binding result [3]: binds
- binding result [4]: binds
- binding result [5]: binds

B4: Rpn6, subunit of LP2 and lid purified from yeast (natural protein, S. cerevisiae, UniProt Q12377 1-434, looked up)
chain: MSLPGSKLEEARRLVNEKQYNEAEQVYLSLLDKDSSQSSAAAGASVDDKRRNEQETSILELGQLYVTMGAKDKLREFIPHSTEYMMQFAKSKTVKVLKTLIEKFEQVPDSLDDQIFVCEKSIEFAKREKRVFLKHSLSIKLATLHYQKKQYKDSLALINDLLREFKKLDDKPSLVDVHLLESKVYHKLRNLAKSKASLTAARTAANSIYCPTQTVAELDLMSGILHCEDKDYKTAFSYFFESFESYHNLTTHNSYEKACQVLKYMLLSKIMLNLIDDVKNILNAKYTKETYQSRGIDAMKAVAEAYNNRSLLDFNTALKQYEKELMGDELTRSHFNALYDTLLESNLCKIIEPFECVEISHISKIIGLDTQQVEGKLSQMILDKIFYGVLDQGNGWLYVYETPNQDATYDSALELVGQLNKVVDQLFEKASVLY
notes: Rpn6, S. cerevisiae proteasome lid subunit; Also stands as the whole protein for the region row on the E. coli truncations; source: purified from S. cerevisiae as part of LP2 or lid
- binding result [6]: binds
- binding result [7]: binds
